# Measurements published in patent US20210155682A1, “COMPOSITIONS AND METHODS FOR REDUCTION OF LIPOPROTEIN A FORMATION AND TREATMENT OF AORTIC VALVE SCLEROSIS AND AORTIC STENOSIS” (Abcentra, LLC, priority 2018, published 2021).
# “Also recorded” adds a separate entry of the source.
# Experiments:
# [1] = molecular target: purified human LDL, carrying apolipoprotein B100 (human) (UniProt P04114); test: Western blot of covalent assembly of 5 nM 17K r-apo(a) with 100 nM LDL, 8 h, 0.1 µM orticumab
# [2] = molecular target: purified human LDL, carrying apolipoprotein B100 (human) (UniProt P04114); test: Western blot of covalent assembly of 5 nM 17K r-apo(a) with 100 nM LDL, 8 h, orticumab at '1' (unit missing, by context 1 µM)
# [3] = molecular target: purified human LDL, carrying apolipoprotein B100 (human) (UniProt P04114); test: Western blot of covalent assembly of 5 nM 17K r-apo(a) with 100 nM LDL, 8 h, 10 µM orticumab
# [4] = molecular target: purified human LDL, carrying apolipoprotein B100 (human) (UniProt P04114); test: Western blot of covalent assembly of 5 nM 17K r-apo(a) with 100 nM LDL, 8 h
# [5] = molecular target: T1, covalent binding between apo(a) and LDL (Lp(a) formation) (Homo sapiens, UniProt P04114); test: Covalent Lp(a) assembly assay, Western blot (% r-Lp(a)); format: biochemical; conditions: for percent inhibition of Lp(a) formation: FIG. 10; for Reduction of covalent Lp(a) compared with control antibodies: 4 hours, orticumab 0.01-10 μM, FIG. 8
# T1 construct: made in house; host or cells: apo(a): stably-expressing HEK293 cell lines; LDL: plasma of a healthy donor
# Protocol: Purified LDL (100 nM) and 17K apo(a) (5 nM) were incubated with conditioned serum-free medium (OptiMEM; Gibco) from HEK293 cells in the presence of 0, 0.01, 0.1, 1.0, and 10 μM of orticumab at 37° C. The reactions were mixed thoroughly every hour and stopped after 4 or 8 hrs by adding 4×SDS-PAGE sample buffer. Samples were then boiled for 5 min at 95° C. and subjected to SDS-PAGE on 6% polyacrylamide gel. After electrophoresis, separated proteins were electroblotted onto a PVDF membrane, blocked, and incubated with a monoclonal antibody (A5) specific for apo(a). HRP-conjugated goat anti-mouse IgG secondary antibody was used to develop a signal in the presence of a chemiluminescence reagent and images were captured using a ChemiDoc system (Bio-Rad). Band intensity (BI) of western-blots were quantified using IMAGELAB software for recombinant Lp(a) formation using the following equation: % r-Lp(a)=BI(Lp(a))/[BI(Lp(a))+BI(apo(a))]. A Two-Way ANOVA with Tukey post-hoc test was used to analyze the data in GraphPad Prism 7.0.
# Covalent binding between apo(a) and LDL was assessed over time by appearance of Lp(a) protein on a Western blot. Using serum-free HEK293 cell-conditioned medium, Lp(a) formation was evaluated after incubation of 17K r-apo(a) with LDL from 0-8 hours; isolated Lp(a), 17K apo(a) alone, and media alone were used as controls.
# Next, the effect of orticumab on inhibition of covalent binding between apo(a) and LDL was assessed by Western blot analysis. 17K r-apo(a) (5 nM) was incubated with LDL (100 nM) in serum free HEK293 cell-conditioned medium for 4 hours at 37° C. in the presence of orticumab at 0.1, 1, 5, and 10 μM.
# To determine whether inhibition of Lp(a) formation occurs at a later time point when Lp(a) formation appears to be maximal, the Western blot experiments were repeated after a 0- and 8-hour incubation of 5 nM 17K r-apo(a) and 100 nM LDL in the presence of orticumab at 0.01, 0.1, 1, and 10 μM in serum free HEK293 cell-conditioned medium (FIG. 9). The results were then quantified (FIG. 10) and analyzed.
# [6] = molecular target: T2, non-covalent binding between apo(a) and LDL (Homo sapiens, UniProt P04114); test: Fluorescence assay of non-covalent binding: quenching of Flu-LDL by 17K r-apo(a)
# T2 construct: made in house; host or cells: apo(a): stably-expressing HEK293 cell lines; LDL: plasma of a healthy donor
# [7] = molecular target: T3, Flu-LDL (Homo sapiens, UniProt P04114); test: Antibody interference with Flu-LDL fluorescence (Flu-LDL alone); conditions: Flu-LDL 100 nM; orticumab 0.1-1000 nM; FIG. 5
# T3 construct: from tissue; host or cells: plasma of a healthy donor
# T3 sequence (P04114 28-4563): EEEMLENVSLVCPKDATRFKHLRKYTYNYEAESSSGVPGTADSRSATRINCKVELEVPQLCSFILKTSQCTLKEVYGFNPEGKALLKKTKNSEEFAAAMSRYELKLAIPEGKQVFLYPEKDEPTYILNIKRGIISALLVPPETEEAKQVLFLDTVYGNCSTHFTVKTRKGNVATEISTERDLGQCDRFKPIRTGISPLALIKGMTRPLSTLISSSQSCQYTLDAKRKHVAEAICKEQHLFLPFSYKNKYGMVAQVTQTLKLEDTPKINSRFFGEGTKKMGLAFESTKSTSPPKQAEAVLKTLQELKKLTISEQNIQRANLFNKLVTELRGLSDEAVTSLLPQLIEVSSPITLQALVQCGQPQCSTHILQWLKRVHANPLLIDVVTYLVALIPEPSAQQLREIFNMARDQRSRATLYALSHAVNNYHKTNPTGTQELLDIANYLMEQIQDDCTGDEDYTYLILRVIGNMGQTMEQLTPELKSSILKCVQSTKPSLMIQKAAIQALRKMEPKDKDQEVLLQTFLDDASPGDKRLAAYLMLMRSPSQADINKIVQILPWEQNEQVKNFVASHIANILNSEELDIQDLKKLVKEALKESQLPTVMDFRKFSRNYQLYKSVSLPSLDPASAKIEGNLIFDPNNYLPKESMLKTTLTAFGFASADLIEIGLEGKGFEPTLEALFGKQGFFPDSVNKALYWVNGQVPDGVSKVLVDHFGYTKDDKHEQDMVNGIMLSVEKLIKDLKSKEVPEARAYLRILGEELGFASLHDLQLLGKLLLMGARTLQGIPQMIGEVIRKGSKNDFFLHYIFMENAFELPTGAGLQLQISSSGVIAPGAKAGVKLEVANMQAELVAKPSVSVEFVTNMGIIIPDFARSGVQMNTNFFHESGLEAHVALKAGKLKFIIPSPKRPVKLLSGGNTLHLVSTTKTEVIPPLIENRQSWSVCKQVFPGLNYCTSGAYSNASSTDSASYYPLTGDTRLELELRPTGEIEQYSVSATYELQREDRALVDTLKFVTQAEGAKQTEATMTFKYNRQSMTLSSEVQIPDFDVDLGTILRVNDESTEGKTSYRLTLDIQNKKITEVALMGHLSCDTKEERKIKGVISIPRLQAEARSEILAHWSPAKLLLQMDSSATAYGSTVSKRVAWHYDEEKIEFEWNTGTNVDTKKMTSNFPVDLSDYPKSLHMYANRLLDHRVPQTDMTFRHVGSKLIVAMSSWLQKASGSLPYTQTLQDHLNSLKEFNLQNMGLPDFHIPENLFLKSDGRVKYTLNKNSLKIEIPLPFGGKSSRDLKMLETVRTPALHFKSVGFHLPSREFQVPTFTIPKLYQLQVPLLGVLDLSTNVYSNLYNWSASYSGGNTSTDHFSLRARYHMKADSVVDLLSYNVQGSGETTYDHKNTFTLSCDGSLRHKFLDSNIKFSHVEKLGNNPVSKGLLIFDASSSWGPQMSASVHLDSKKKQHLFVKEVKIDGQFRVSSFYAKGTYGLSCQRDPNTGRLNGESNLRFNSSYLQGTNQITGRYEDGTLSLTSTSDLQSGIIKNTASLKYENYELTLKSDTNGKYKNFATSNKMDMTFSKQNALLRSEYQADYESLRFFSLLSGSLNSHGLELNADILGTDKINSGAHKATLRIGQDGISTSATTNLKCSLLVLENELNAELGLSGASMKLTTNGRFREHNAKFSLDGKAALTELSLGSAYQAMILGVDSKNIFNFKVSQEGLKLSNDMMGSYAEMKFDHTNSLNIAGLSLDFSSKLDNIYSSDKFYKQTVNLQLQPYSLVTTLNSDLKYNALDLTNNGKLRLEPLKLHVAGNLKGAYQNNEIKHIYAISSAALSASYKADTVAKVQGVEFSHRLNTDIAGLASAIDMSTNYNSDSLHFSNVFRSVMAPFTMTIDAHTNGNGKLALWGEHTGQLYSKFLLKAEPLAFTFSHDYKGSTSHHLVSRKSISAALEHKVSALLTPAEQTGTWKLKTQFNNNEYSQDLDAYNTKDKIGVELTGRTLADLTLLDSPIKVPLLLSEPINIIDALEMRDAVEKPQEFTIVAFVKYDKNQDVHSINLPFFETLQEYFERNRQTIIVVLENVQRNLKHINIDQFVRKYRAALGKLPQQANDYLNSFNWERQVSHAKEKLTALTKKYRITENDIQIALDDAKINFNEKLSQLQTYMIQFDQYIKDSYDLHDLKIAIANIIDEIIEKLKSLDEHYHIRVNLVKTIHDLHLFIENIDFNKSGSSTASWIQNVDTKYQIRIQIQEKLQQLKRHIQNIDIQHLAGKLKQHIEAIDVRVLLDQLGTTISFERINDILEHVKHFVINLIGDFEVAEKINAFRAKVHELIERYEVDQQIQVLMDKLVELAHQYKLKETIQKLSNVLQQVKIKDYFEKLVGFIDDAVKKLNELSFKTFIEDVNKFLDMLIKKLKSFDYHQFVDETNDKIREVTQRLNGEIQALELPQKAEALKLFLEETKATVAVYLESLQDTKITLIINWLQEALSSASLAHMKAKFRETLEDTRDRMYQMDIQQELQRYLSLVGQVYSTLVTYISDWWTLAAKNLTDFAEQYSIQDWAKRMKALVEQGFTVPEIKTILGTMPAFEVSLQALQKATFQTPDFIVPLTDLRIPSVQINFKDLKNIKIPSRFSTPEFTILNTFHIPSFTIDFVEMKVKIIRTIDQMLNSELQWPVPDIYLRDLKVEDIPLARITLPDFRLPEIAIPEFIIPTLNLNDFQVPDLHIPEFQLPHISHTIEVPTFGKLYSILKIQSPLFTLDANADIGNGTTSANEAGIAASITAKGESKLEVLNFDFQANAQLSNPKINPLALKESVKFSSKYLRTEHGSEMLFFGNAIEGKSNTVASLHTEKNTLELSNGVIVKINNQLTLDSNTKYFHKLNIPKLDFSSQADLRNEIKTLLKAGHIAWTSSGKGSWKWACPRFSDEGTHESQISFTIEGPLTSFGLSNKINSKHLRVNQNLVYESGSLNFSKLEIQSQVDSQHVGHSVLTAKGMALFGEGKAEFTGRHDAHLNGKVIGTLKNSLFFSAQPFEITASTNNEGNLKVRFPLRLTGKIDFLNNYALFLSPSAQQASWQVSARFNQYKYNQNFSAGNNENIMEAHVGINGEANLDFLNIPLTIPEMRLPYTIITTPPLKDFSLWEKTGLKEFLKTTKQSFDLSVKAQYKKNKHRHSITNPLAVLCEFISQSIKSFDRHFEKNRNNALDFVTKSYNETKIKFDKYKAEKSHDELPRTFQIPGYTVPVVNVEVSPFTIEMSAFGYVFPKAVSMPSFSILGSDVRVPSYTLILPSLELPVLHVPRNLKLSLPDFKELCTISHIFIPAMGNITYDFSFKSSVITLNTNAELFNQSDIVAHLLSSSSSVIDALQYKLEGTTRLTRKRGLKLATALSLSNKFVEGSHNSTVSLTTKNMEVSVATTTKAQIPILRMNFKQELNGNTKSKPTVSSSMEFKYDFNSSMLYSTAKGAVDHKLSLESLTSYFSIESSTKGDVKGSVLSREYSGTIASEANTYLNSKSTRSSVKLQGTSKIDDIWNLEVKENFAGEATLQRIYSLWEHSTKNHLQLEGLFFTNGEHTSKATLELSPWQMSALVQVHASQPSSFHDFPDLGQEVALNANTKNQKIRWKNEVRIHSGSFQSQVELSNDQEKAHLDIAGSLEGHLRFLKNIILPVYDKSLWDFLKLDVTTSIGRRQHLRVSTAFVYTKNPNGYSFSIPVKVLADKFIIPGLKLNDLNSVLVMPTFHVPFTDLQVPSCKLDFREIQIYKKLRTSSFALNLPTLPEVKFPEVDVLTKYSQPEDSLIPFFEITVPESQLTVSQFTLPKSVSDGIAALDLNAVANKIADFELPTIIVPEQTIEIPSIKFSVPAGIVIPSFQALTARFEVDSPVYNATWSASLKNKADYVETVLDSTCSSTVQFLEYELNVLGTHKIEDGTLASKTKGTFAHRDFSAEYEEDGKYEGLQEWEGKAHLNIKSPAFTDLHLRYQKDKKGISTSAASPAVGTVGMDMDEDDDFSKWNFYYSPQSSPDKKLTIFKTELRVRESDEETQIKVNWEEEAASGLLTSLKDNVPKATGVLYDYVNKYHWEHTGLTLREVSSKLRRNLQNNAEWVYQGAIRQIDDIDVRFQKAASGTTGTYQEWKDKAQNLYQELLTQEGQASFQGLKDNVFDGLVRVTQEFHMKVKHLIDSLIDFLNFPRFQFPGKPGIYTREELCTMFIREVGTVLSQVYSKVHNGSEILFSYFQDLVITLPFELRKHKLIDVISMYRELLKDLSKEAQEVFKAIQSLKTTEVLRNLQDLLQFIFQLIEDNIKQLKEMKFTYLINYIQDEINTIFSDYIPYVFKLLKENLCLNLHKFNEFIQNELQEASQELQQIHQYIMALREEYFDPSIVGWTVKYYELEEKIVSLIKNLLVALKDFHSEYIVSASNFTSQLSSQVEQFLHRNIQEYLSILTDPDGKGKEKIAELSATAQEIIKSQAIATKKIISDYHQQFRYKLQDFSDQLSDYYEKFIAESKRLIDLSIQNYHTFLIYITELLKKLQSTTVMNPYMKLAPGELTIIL
# T2 sequence (P04114 28-4563): as above
# Sequence of purified human LDL, carrying apolipoprotein B100 (human) (P04114 28-4563): as above
# T1 sequence (P04114 28-4563): as above
Substance,percent inhibition of Lp(a) formation [1] [%],percent inhibition of Lp(a) formation [2] [%],percent inhibition of Lp(a) formation [3] [%],percent inhibition of Lp(a) formation [4] [%],"percent inhibition of Lp(a) formation ([5]; 0.01 μM orticumab, 8-hour incubation, 17K r-apo(a) 5 nM, LDL 100 nM) [%]","percent inhibition of Lp(a) formation ([5]; 0.1 μM orticumab, 8-hour incubation, 17K r-apo(a) 5 nM, LDL 100 nM) [%]","percent inhibition of Lp(a) formation ([5]; 10 μM orticumab, 8-hour incubation, 17K r-apo(a) 5 nM, LDL 100 nM) [%]","Lp(a) band on Western blot ([5]; 10 μM orticumab, 4 hours at 37° C., 17K r-apo(a) 5 nM, LDL 100 nM, FIG. 7)","Inhibition of Lp(a) formation, in words ([5]; 8-hour incubation, orticumab 0.01, 0.1, 1 and 10 μM, FIG. 9, 10)","Reduction of covalent Lp(a) compared with control antibodies ([5]; 17K r-apo(a) 5 nM, LDL 100 nM)","Reduction of covalent Lp(a) compared with control antibodies ([5]; 17K r-apo(a) 5 nM, LDL 100 nM, listed as Orticumab)","Inhibition of covalent binding between apo(a) and LDL, overall statement ([5]; orticumab 0.01, 0.1, 1 and 10 μM, Western blot)","percent inhibition of Lp(a) formation ([5]; orticumab ""At 1"" (unit not given), 8-hour incubation, 17K r-apo(a) 5 nM, LDL 100 nM) [%]","Concentration at which the antibody interfered with fluorescence ([6]; Flu-LDL 30 nM, 17K r-apo(a) 300 nM, FIG. 4A) [nM]","Concentration of maximum response in dose-response titration ([6]; de-quenching of Flu-LDL fluorescence, FIG. 3) [nM]","Inhibition of non-covalent binding between apo(a) and LDL, overall statement ([6]; fluorescence assay, summary of Example 3)","Alleviation of quenching of Flu-LDL by 17K apo(a), antibody titration ([6]; orticumab 0-1000 nM, Flu-LDL 50 nM, 17K r-apo(a) 500 nM, FIG. 3)","Inhibition of non-covalent apo(a)/Flu-LDL binding in 17K apo(a) titration ([6]; orticumab 1000 nM, Flu-LDL 50 nM, 17K r-apo(a) 0-1000 nM, FIG. 2)","De-quenching of Flu-LDL fluorescence at lower concentrations ([6]; orticumab 0.4096-100 nM, Flu-LDL 30 nM, 17K r-apo(a) 300 nM, FIG. 4A)",Effect on fluorescence of Flu-LDL alone [7]
orticumab (antibody),25.8,35,73.5,21.4,,,,,,,,,,,,,,,,
"orticumab: human monoclonal antibody against apoB100 epitope P45 (residues 661-680); heavy chain SEQ ID No: 10, light chain SEQ ID No: 11",,,,,21.37,25.8,73.46,Disappearance of the Lp(a) band,significantly inhibited Lp(a) formation; also recorded: decreased Lp(a) covalent assembly at the lowest concentration tested,behaves similarly in reducing covalent Lp(a),as effective as the anti-apoB or anti-apo(a) control antibodies,inhibited,34.99,≤ 0.4,1000,very effective in inhibiting non-covalent binding,able to alleviate the quenching; also recorded: much lower than that of the polyclonal anti-apoB antibody or EACA,inhibited the binding; also recorded: on par with the anti-apo(a) antibody; also recorded: interfered with the apo(a) and Flu-LDL interaction,not able to de-quench; also recorded: no effect on de-quenching the fluorescence,increased the fluorescence of Flu-LDL to a higher level; also recorded: enhanced fluorescent signal
